The values below come from the Human Domainome abundance scans (Beltran et al. 2025).

± gives the uncertainty stated by the source.

The data set is described as follows: abundance fitness (aPCA) (normalised: wild type 0, dead -1); higher = more abundant; growth selection in yeast, the domain comes from the species named. As to conditions: Homo sapiens.
For “DnaJ homolog subfamily B member 1 L29T, P25685”, the abundance fitness is -0.131 ± 0.072.

“DnaJ homolog subfamily B member 1 L29V, P25685”: the abundance fitness is -0.052 ± 0.076.

For the substance “DnaJ homolog subfamily B member 1 L29W, P25685”, the abundance fitness was -0.111 ± 0.068.

“DnaJ homolog subfamily B member 1 L29Y, P25685”: the abundance fitness was -0.008 ± 0.089.

Regarding “DnaJ homolog subfamily B member 1 L55C, P25685”, the abundance fitness was -0.788 ± 0.2.

As to “DnaJ homolog subfamily B member 1 L55E, P25685”, the abundance fitness was -0.752 ± 0.099.

Turning to “DnaJ homolog subfamily B member 1 L55F, P25685”, the abundance fitness is -0.649 ± 0.1.

“DnaJ homolog subfamily B member 1 L55G, P25685”: the abundance fitness was -0.687 ± 0.081.

“DnaJ homolog subfamily B member 1 L55H, P25685”: the abundance fitness was -0.686 ± 0.14.

As for “DnaJ homolog subfamily B member 1 L55I, P25685”, the abundance fitness was -0.354 ± 0.11.

Consider “DnaJ homolog subfamily B member 1 L55K, P25685”, for which the abundance fitness is -0.781 ± 0.11.

In the case of “DnaJ homolog subfamily B member 1 L55M, P25685”, the abundance fitness is -0.464 ± 0.11.

Regarding “DnaJ homolog subfamily B member 1 L55N, P25685”, the abundance fitness was -0.603 ± 0.17.

On to “DnaJ homolog subfamily B member 1 L55P, P25685”, for which the abundance fitness was -0.705 ± 0.088.

On to “DnaJ homolog subfamily B member 1 L55Q, P25685”, for which the abundance fitness was -0.747 ± 0.1.

With “DnaJ homolog subfamily B member 1 L55R, P25685”, the abundance fitness is -0.769 ± 0.069.

As to “DnaJ homolog subfamily B member 1 L55S, P25685”, the abundance fitness is -0.524 ± 0.086.

Take “DnaJ homolog subfamily B member 1 L55T, P25685”: the abundance fitness was -0.636 ± 0.1.

As to “DnaJ homolog subfamily B member 1 L55V, P25685”, the abundance fitness was -0.347 ± 0.08.

Consider “DnaJ homolog subfamily B member 1 L55W, P25685”, for which the abundance fitness was -0.932 ± 0.1.

Take “DnaJ homolog subfamily B member 1 L55Y, P25685”: the abundance fitness is -0.873 ± 0.16.

“DnaJ homolog subfamily B member 1 N36A, P25685”: the abundance fitness is 0.038 ± 0.084.

Turning to “DnaJ homolog subfamily B member 1 N36C, P25685”, the abundance fitness amounted to 0.124 ± 0.17.

As to “DnaJ homolog subfamily B member 1 N36D, P25685”, the abundance fitness is -0.221 ± 0.12.

For “DnaJ homolog subfamily B member 1 N36E, P25685”, the abundance fitness was -0.174 ± 0.084.

As to “DnaJ homolog subfamily B member 1 N36F, P25685”, the abundance fitness is -0.415 ± 0.12.

As for “DnaJ homolog subfamily B member 1 N36G, P25685”, the abundance fitness is -0.029 ± 0.08.

For “DnaJ homolog subfamily B member 1 N36H, P25685”, the abundance fitness came out at 0.002 ± 0.11.

Consider “DnaJ homolog subfamily B member 1 N36I, P25685”, for which the abundance fitness is -0.181 ± 0.13.

Consider “DnaJ homolog subfamily B member 1 N36K, P25685”, for which the abundance fitness is -0.112 ± 0.085.

With “DnaJ homolog subfamily B member 1 N36L, P25685”, the abundance fitness is 0.009 ± 0.054.

In turn, “DnaJ homolog subfamily B member 1 N36M, P25685” registered an abundance fitness of 0.035 ± 0.13.

On to “DnaJ homolog subfamily B member 1 N36P, P25685”, for which the abundance fitness is -0.096 ± 0.086.

Turning to “DnaJ homolog subfamily B member 1 N36R, P25685”, the abundance fitness is -0.14 ± 0.093.

“DnaJ homolog subfamily B member 1 N36S, P25685” had an abundance fitness of 0.079 ± 0.06.

In turn, “DnaJ homolog subfamily B member 1 N36T, P25685” came in with an abundance fitness of 0.092 ± 0.1.

Take “DnaJ homolog subfamily B member 1 N36V, P25685”: the abundance fitness is -0.158 ± 0.088.

For “DnaJ homolog subfamily B member 1 N36W, P25685”, the abundance fitness was -0.097 ± 0.099.

As to “DnaJ homolog subfamily B member 1 N36Y, P25685”, the abundance fitness was -0.195 ± 0.11.

As to “DnaJ homolog subfamily B member 1 P33A, P25685”, the abundance fitness was -0.055 ± 0.075.

For “DnaJ homolog subfamily B member 1 P33C, P25685”, the abundance fitness is -0.11 ± 0.1.

For “DnaJ homolog subfamily B member 1 P33E, P25685”, the abundance fitness is -0.096 ± 0.087.

As to “DnaJ homolog subfamily B member 1 P33F, P25685”, the abundance fitness was -0.207 ± 0.093.

As to “DnaJ homolog subfamily B member 1 P33G, P25685”, the abundance fitness was 0.017 ± 0.064.

For “DnaJ homolog subfamily B member 1 P33H, P25685”, the abundance fitness was -0.292 ± 0.15.

Consider “DnaJ homolog subfamily B member 1 P33I, P25685”, for which the abundance fitness is -0.085 ± 0.097.

For “DnaJ homolog subfamily B member 1 P33L, P25685”, the abundance fitness was -0.091 ± 0.056.

With “DnaJ homolog subfamily B member 1 P33M, P25685”, the abundance fitness is 0.039 ± 0.079.

Take “DnaJ homolog subfamily B member 1 P33N, P25685”: the abundance fitness is -0.009 ± 0.094.

The substance “DnaJ homolog subfamily B member 1 P33Q, P25685” had an abundance fitness of 0.057 ± 0.1.

With “DnaJ homolog subfamily B member 1 P33R, P25685”, the abundance fitness is -0.06 ± 0.078.

For “DnaJ homolog subfamily B member 1 P33S, P25685”, the abundance fitness is 0.018 ± 0.083.

Consider “DnaJ homolog subfamily B member 1 P33V, P25685”, for which the abundance fitness was -0.078 ± 0.076.

With “DnaJ homolog subfamily B member 1 P33W, P25685”, the abundance fitness is -0.455 ± 0.096.

With “DnaJ homolog subfamily B member 1 P33Y, P25685”, the abundance fitness was -0.245 ± 0.11.

As for “DnaJ homolog subfamily B member 1 P39A, P25685”, the abundance fitness is -0.037 ± 0.074.

With “DnaJ homolog subfamily B member 1 P39C, P25685”, the abundance fitness is -0.016 ± 0.15.

As to “DnaJ homolog subfamily B member 1 P39D, P25685”, the abundance fitness was -0.339 ± 0.27.

“DnaJ homolog subfamily B member 1 P39E, P25685” had an abundance fitness of 0.064 ± 0.097.

With “DnaJ homolog subfamily B member 1 P39F, P25685”, the abundance fitness is -0.041 ± 0.2.

Take “DnaJ homolog subfamily B member 1 P39G, P25685”: the abundance fitness was -0.287 ± 0.16.

Regarding “DnaJ homolog subfamily B member 1 P39H, P25685”, the abundance fitness stood at 0.054 ± 0.28.

Turning to “DnaJ homolog subfamily B member 1 P39I, P25685”, the abundance fitness was -0.038 ± 0.15.

“DnaJ homolog subfamily B member 1 P39K, P25685” had an abundance fitness of 0.027 ± 0.14.

With “DnaJ homolog subfamily B member 1 P39N, P25685”, the abundance fitness is 0.035 ± 0.12.

As to “DnaJ homolog subfamily B member 1 P39R, P25685”, the abundance fitness worked out at 0.041 ± 0.1.

Regarding “DnaJ homolog subfamily B member 1 P39S, P25685”, the abundance fitness is -0.078 ± 0.069.

For “DnaJ homolog subfamily B member 1 P39T, P25685”, the abundance fitness came to 0.133 ± 0.13.

For the substance “DnaJ homolog subfamily B member 1 P39V, P25685”, the abundance fitness turned out to be 0.001 ± 0.12.

Regarding “DnaJ homolog subfamily B member 1 P39W, P25685”, the abundance fitness is 0.026 ± 0.12.

For “DnaJ homolog subfamily B member 1 P39Y, P25685”, the abundance fitness was -0.222 ± 0.14.

For the substance “DnaJ homolog subfamily B member 1 P58A, P25685”, the abundance fitness is -0.081 ± 0.09.

For the substance “DnaJ homolog subfamily B member 1 P58C, P25685”, the abundance fitness is -0.256 ± 0.22.

In the case of “DnaJ homolog subfamily B member 1 P58D, P25685”, the abundance fitness was -0.332 ± 0.14.

“DnaJ homolog subfamily B member 1 P58E, P25685”: the abundance fitness is -0.149 ± 0.086.

Turning to “DnaJ homolog subfamily B member 1 P58F, P25685”, the abundance fitness was -0.407 ± 0.25.

Turning to “DnaJ homolog subfamily B member 1 P58G, P25685”, the abundance fitness was -0.238 ± 0.079.

Consider “DnaJ homolog subfamily B member 1 P58H, P25685”, for which the abundance fitness is -0.192 ± 0.19.

Turning to “DnaJ homolog subfamily B member 1 P58I, P25685”, the abundance fitness is -0.256 ± 0.16.

As to “DnaJ homolog subfamily B member 1 P58K, P25685”, the abundance fitness is 0.021 ± 0.31.

Turning to “DnaJ homolog subfamily B member 1 P58L, P25685”, the abundance fitness is -0.163 ± 0.057.

As for “DnaJ homolog subfamily B member 1 P58N, P25685”, the abundance fitness is -0.306 ± 0.2.

For “DnaJ homolog subfamily B member 1 P58Q, P25685”, the abundance fitness was -0.18 ± 0.097.

“DnaJ homolog subfamily B member 1 P58R, P25685”: the abundance fitness is -0.11 ± 0.073.

On to “DnaJ homolog subfamily B member 1 P58S, P25685”, for which the abundance fitness was -0.112 ± 0.089.

On to “DnaJ homolog subfamily B member 1 P58T, P25685”, for which the abundance fitness is -0.143 ± 0.14.

As to “DnaJ homolog subfamily B member 1 P58V, P25685”, the abundance fitness is -0.191 ± 0.094.

For the substance “DnaJ homolog subfamily B member 1 P58W, P25685”, the abundance fitness is -0.236 ± 0.085.

Consider “DnaJ homolog subfamily B member 1 P58Y, P25685”, for which the abundance fitness was -0.229 ± 0.13.

Turning to “DnaJ homolog subfamily B member 1 Q7A, P25685”, the abundance fitness is -0.386 ± 0.12.

“DnaJ homolog subfamily B member 1 Q7C, P25685” had an abundance fitness of 0.031 ± 0.13.
